According to publication PMC11589570 (Nature Communications, 2024):
No end group written: not given here.

Assays:
Conditions in all cases: both partners purified
LC3A_(1-120) = LC3A_(1-120) (human, UniProt Q9H492 1-120); test: fluorescence polarisation; direct titration: 30 nM Cy5-labelled p62 LIR probe, purified LC3/GABARAPs titrated from 55 µM to 600 pM; 50 mM HEPES pH 7.5, 150 mM NaCl, 5 % glycerol, 1 mM TCEP, 0.05% TWEEN20; 1 h at room temperature; 384-well plate
GABARAPL2_(1-117) = GABARAPL2_(1-117) (human, UniProt P60520 1-117); test: fluorescence polarisation; tracer displacement: 30 nM Cy5-labelled p62 LIR probe with 4 µM LC3/GABARAPs, small-molecule compounds titrated from 20 µM to 20 nM; same assay buffer; 1 h at room temperature
LC3B_(1-120) = LC3B_(1-120) (human, UniProt Q9GZQ8 1-120); test: as above
LC3C_(1-126) = LC3C_(1-126) (human, UniProt Q9BXW4 1-126); test: as above
GABARAPL1_(1-117) = GABARAPL1_(1-117) (human, UniProt Q9H0R8 1-117); test: as above
GABARAP_(1-116) = GABARAP_(1-116) (human, UniProt O95166 1-116); test: as above

Measured: binding result

B1: fluorescently labeled p62 LIR probe (SDNSSGGDDDWTHLSSK-Cy5) (peptide)
peptide: SDNSSGGDDDWTHLSSK-Cy5
notes: also called p62 LIR peptide linked to a Cy5 fluorophore; tracer
binds: all assays above
